Legend:
[1] = target: T1, recombinant His-tagged human FRα (ACROBiosystems) (human, UniProt P15328 25-233); test: BLI (Octet RED96); end of the range tied to v35305 by Table 20.1
T1 construct: also called hFRα; hFRα antigen; not shown: His tag
Description: (§1) The assay buffer used was KB buffer (kinetics buffer, composed of PBS pH 7.4, 0.1% BSA, 0.02% Tween 20, 0.05% sodium azide) supplemented with 0.06% Tween 20 and in some instances also with 1% BSA. The experiment was conducted at 30° C. with a shake speed of 1000 rpm.
(§2) Data analysis was performed using Data Analysis Software 9.0 (ForteBio, Fremont CA). The reference-subtracted binding curves were globally fitted to the 1:1 interaction model to generate the binding kinetic parameters kₒₙ, koff, and the dissociation constant KD.

[2] = target: T1, recombinant His-tagged human FRα …; test: BLI (Octet RED96) as in Example 8: antibody captured, His-tagged hFRα as analyte, mean of n=2
Description: as §1, §2

[3] = target: T1, recombinant His-tagged human FRα …; test: BLI (Octet RED96); end of the range tied to v35348 by Table 20.1
Description: as §1, §2

[4] = target: T1, recombinant His-tagged human FRα …; test: BLI (Octet RED96): antibody on anti-human IgG Fc capture biosensor, His-tagged hFRα as analyte, 1:1 global fit, mean of n=2
Description: as §1, §2

[5] = target: T1, recombinant His-tagged human FRα …; test: BLI (Octet RED96); end of the range tied to v30394 by Table 8.1
Description: as §1, §2

[6] = target: T1, recombinant His-tagged human FRα …; test: BLI (Octet RED96); end of the range tied to v31426 by Table 8.1
Description: as §1, §2

FCGR1A = target: T2, FCGR1A (human, UniProt P12314); test: Retrogenix cell microarray, fixed cell confirmation screen, HEK293 cells overexpressing the protein, v36675 at 20 µg/mL, detection with AF647 anti-hIgG H+L; the text calls FcgR signals Fc-domain mediated
T2 construct: overexpressed on reverse-transfected HEK293 cells, fixed; One of the FcgR receptors that the text names only as a group
Description: (§3) Fluorescent images were analysed and quantitated (for transfection) using ImageQuant™ software (Version 8.2; GE Healthcare, Chicago, IL). A protein hit was defined as a duplicate spot showing an increased signal compared to background levels and was identified by visual inspection using the images gridded on the ImageQuant™ software. Hits were classified as strong, medium, weak or very weak by visual inspection by two experienced scientists based on the intensity of the duplicate spots.

FCGR2A = target: T3, FCGR2A (human, UniProt P12318); test: as above
T3 construct: overexpressed on reverse-transfected HEK293 cells, fixed; One of the FcgR receptors that the text names only as a group
T3 sequence (receptor chain, looked up): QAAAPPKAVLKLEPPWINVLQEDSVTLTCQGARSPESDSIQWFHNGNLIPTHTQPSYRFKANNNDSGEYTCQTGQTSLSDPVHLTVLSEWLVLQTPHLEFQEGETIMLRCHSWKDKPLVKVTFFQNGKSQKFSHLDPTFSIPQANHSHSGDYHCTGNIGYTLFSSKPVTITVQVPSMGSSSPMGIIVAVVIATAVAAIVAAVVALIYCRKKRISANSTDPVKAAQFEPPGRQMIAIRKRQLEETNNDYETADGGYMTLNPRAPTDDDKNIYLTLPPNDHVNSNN
Description: as §3

[7] = target: T1, recombinant His-tagged human FRα …; test: SPR (Biacore T200): hFRα amine-coupled to CM5 chip at high antigen density, bivalent FSA injected, 1:1 Langmuir fit, mean of n=2
Description: (§4) CM5 Series S sensor chip, Biacore™ amine coupling kit (NHS, EDC and 1 M ethanolamine), and 10 mM sodium acetate buffers were purchased from GE Healthcare Life Science (Mississauga, ON, Canada). PBS running buffer with 0.05% Tween20 (PBST) was purchased from Teknova Inc. (Hollister, CA). Recombinant human FRα was purchased from ACRObiosystems (Newark, DE).
(§5) Screening of the variants for binding to hFRα antigen was conducted in two steps: capture of hFRα onto surface, followed by injection of three to five concentrations of variant. The hFRα surface was prepared on a CM5 Series S sensor chip by standard amine coupling methods as described by the manufacturer (GE Healthcare Life Science, Mississauga, ON, Canada). The immobilization of the hFRα was performed using Biacore™ T200 immobilization wizard with an amine coupling method aiming for resonance units (RUs) ranging from 5 to 200 RUs. Using multi-cycle kinetics, three to five concentrations of a two-fold dilution series of samples starting at 300 nM with a blank buffer control were injected at 50 uL/min for 180s with a 600s dissociation phase, resulting in a set of sensorgrams with a buffer blank reference. The hFRα surface was regenerated to prepare for the next injection cycle by one pulse of 10 mM glycine/HCl pH 1.5 for 30s at 30 uL/min. Blank-subtracted sensorgrams were analyzed using Biacore™ T200 Evaluation Software v3.0. The blank-subtracted sensorgrams were then fit to the 1:1 Langmuir binding model.

[8] = target: T1, recombinant His-tagged human FRα …; test: SPR (Biacore T200), high antigen density; end of the range tied to v30399 by Table 8.3
Description: as §5

[9] = target: T1, recombinant His-tagged human FRα …; test: SPR (Biacore T200): hFRα amine-coupled to CM5 chip at medium antigen density, bivalent FSA injected, 1:1 Langmuir fit, mean of n=2
Description: as §4, §5

[10] = target: T1, recombinant His-tagged human FRα …; test: SPR (Biacore T200): hFRα amine-coupled to CM5 chip at medium-low antigen density, bivalent FSA injected, 1:1 Langmuir fit, mean of n=2
Description: as §4, §5

T1 sequence (P15328 25-233 limits assumed): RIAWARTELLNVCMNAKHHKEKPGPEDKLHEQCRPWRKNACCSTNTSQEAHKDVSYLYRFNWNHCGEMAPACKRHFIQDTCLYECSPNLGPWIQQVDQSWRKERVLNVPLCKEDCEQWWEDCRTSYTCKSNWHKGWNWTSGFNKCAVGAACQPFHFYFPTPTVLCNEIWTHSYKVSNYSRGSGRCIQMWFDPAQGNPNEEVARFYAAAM
T2 sequence (P12314 16-374 limits assumed): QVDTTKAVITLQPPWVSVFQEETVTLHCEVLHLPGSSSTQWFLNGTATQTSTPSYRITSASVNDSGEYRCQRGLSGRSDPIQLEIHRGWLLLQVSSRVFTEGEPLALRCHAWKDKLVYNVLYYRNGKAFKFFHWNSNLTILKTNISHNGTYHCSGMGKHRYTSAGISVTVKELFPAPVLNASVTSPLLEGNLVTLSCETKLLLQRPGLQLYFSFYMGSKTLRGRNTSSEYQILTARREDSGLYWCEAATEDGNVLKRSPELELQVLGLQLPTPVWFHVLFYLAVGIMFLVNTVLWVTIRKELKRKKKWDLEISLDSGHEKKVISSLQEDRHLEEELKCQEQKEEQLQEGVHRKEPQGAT

B1: v35305 (antibody, human IgG1, kappa, V domains shown)
VH: EVQLLESGGGLVQPGGSLRLSCAVSGFSLSLYGVSWVRQAPGKGLEWIGAVNSGGSAYYADSVKGRSTISRDNSKNTVYLQMNSLRAEDTAVYYCARSGSGYPMDYLAIWGQGTLVTVSS
VL: DYQMTQSPSSVSASVGDRVTITCRASQSIWYWLAWYQQKPGKAPKLLIYEASTLASGVPSRFSGSGSGTDFTLTISSVQPEDAATYYCQQGYGRSNVDNIFGGGTKVEVKR
For B1, the “fold improvement of affinity over the parental humanized antibody v30384” value [1] was 12 fold and the Kd [2] was 10.8 nM.

B2: v35348 (antibody, human IgG1, kappa, V domains shown)
VH: EVQLLESGGGLVQPGGSLRLSCAVSGFSLSLYGVSWVRQAPGKGLEWIGAVNSGGSAYYADSFKGRSTISRDNSKNTVYLQMNSLRAEDTAVYYCARSGSGYPMDYHPIWGQGTLVTVSS
VL: DYQMTQSPSSVSASVGDRVTITCRASQSIGDWLAWYQQKPGKAPKLLIYEASTLASGVPSRFSGSGSGTDFTLTISSVQPEDAATYYCQQGYGRWHILNIFGGGTKVEVKR
In the case of B2, the “fold improvement of affinity over the parental humanized antibody v30384” value [3] is reported as 58 fold and the Kd [2] is reported as 2.2 nM.

B3: v30394 (antibody, human IgG1, kappa)
heavy 1: EVQLLESGGGLVQPGGSLRLSCAVSGFSLSSYGVSWVRQAPGKGLEWIGAVNSGGSAYYADWAKGRSTISRDNSKNTVYLQMNSLRAEDTAVYYCARSGSGYPMDYLAIWGQGTLVTVSSASTKGPSVFPLAPSSKSTSGGTAALGCLVKDYFPEPVTVSWNSGALTSGVHTFPAVLQSSGLYSLSSVVTVPSSSLGTQTYICNVNHKPSNTKVDKKVEPKSCDKTHTCPPCPAPELLGGPSVFLFPPKPKDTLMISRTPEVTCVVVDVSHEDPEVKFNWYVDGVEVHNAKTKPREEQYNSTYRVVSVLTVLHQDWLNGKEYKCKVSNKALPAPIEKTISKAKGQPREPQVYVYPPSRDELTKNQVSLTCLVKGFYPSDIAVEWESNGQPENNYKTTPPVLDSDGSFALVSKLTVDKSRWQQGNVFSCSVMHEALHNHYTQKSLSLSPG
heavy 2: not shown
light: DYQMTQSPSSVSASVGDRVTITCRASQSIGDWLAWYQQKPGKAPKLLIYEASTLASGVPSRFSGSGSGTDFTLTISSVQPEDAATYYCQQGYGRSNVDNIFGGGTKVEVKRTVAAPSVFIFPPSDEQLKSGTASVVCLLNNFYPREAKVQWKVDNALQSGNSQESVTEQDSKDSTYSLSSTLTLSKADYEKHKVYACEVTHQGLSSPVTKSFNRGEC
notes: Humanized IgG1/kappa, HetFc; also called 4H4L
In the case of B3, the Kd [4] is reported as 63 nM and the “fold reduced affinity compared to the parental chimera antibody v23924” value [5] is reported as 2 fold.

B4: v31426 (antibody, human IgG1, kappa)
heavy: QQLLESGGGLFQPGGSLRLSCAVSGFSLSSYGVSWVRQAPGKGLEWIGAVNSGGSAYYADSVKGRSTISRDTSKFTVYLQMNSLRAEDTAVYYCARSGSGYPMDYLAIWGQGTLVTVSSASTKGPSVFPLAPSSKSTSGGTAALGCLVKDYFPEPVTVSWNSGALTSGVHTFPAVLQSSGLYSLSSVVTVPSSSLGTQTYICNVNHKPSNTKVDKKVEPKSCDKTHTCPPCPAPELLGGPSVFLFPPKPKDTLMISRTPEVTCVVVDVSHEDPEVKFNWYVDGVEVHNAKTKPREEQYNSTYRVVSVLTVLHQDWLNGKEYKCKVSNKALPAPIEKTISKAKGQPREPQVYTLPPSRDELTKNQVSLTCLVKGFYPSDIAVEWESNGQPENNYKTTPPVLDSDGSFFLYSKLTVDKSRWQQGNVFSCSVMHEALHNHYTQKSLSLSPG
light: DYQMTQSPSSVSASVGDRVTITCRASQSIGDWLAWYQQKPGKAPKLLIYEASTLASGVPSRFSGSGSGTDFTLTISSVQPEDAATYYCQQGYGRSNVDNIFGGGTKVEVKRTVAAPSVFIFPPSDEQLKSGTASVVCLLNNFYPREAKVQWKVDNALQSGNSQESVTEQDSKDSTYSLSSTLTLSKADYEKHKVYACEVTHQGLSSPVTKSFNRGEC
notes: Humanized IgG1/kappa, HomoFc; also called 3gH4L
B4 was tested, and the Kd [4] was 210 nM and the “fold reduced affinity compared to the parental chimera antibody v23924” value [6] was 8 fold.

B5: v36675 (antibody, human IgG1, kappa)
heavy: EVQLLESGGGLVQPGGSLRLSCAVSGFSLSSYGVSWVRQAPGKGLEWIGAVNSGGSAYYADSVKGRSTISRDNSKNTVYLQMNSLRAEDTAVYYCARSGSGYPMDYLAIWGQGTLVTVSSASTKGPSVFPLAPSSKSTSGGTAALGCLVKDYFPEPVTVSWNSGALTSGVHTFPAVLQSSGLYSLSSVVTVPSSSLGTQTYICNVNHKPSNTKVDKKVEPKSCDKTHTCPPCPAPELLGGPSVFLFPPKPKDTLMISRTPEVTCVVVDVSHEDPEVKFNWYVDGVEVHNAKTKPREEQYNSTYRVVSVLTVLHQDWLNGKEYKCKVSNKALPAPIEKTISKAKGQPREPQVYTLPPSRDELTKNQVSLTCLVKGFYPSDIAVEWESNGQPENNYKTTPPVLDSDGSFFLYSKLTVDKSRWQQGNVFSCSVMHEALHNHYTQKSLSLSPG
light: DYQMTQSPSSVSASVGDRVTITCRASQSIGDWLAWYQQKPGKAPKLLIYEASTLASGVPSRFSGSGSGTDFTLTISSVQPEDAATYYCQQGYGRSNVDNIFGGGTKVEVKRTVAAPSVFIFPPSDEQLKSGTASVVCLLNNFYPREAKVQWKVDNALQSGNSQESVTEQDSKDSTYSLSSTLTLSKADYEKHKVYACEVTHQGLSSPVTKSFNRGEC
notes: Same paratopes as v30384 but HomoFc instead of HetFc; also called humanized variant v36675
B5: binds (FCGR1A); binds (FCGR2A).

B6: v30399 (antibody, human IgG1, kappa)
heavy 1: EVQVLESGGGLVQPGGSLRLSCAVSGFSLSSYGVSWVRQAPGKGLEWIGAVNSGGSAYYADWAKGRSTISRDNSKNTVYLQMNSLRAEDTAVYYCARSGSGYPMDYLAIWGQGTLVTVSSASTKGPSVFPLAPSSKSTSGGTAALGCLVKDYFPEPVTVSWNSGALTSGVHTFPAVLQSSGLYSLSSVVTVPSSSLGTQTYICNVNHKPSNTKVDKKVEPKSCDKTHTCPPCPAPELLGGPSVFLFPPKPKDTLMISRTPEVTCVVVDVSHEDPEVKFNWYVDGVEVHNAKTKPREEQYNSTYRVVSVLTVLHQDWLNGKEYKCKVSNKALPAPIEKTISKAKGQPREPQVYVYPPSRDELTKNQVSLTCLVKGFYPSDIAVEWESNGQPENNYKTTPPVLDSDGSFALVSKLTVDKSRWQQGNVFSCSVMHEALHNHYTQKSLSLSPG
heavy 2: not shown
light: DYQMTQSPSSVSASVGDRVTITCRASQSIGDWLAWYQQKPGKAPKLLIYEASTLASGVPSRFSGSGSGTDFTLTISSVQPEDAATYYCQQGYGRSNVDNIFGGGTKVEVKRTVAAPSVFIFPPSDEQLKSGTASVVCLLNNFYPREAKVQWKVDNALQSGNSQESVTEQDSKDSTYSLSSTLTLSKADYEKHKVYACEVTHQGLSSPVTKSFNRGEC
notes: Humanized IgG1/kappa, HetFc; also called 4bH4L
B6 was tested, and the Kd [4] was 69 nM, the Kd [7] was 0.709 nM and the “fold lower KD in FSA compared to one-armed antibody (OAA) format” value [8] was 116 fold. For the same binder, the Kd [9] was 2.67 nM and the Kd [10] was 3.71 nM.

From patent US20240424125A1 (Zymeworks, published 2024)
